This is an account of results in patent US8389575B2, “Control of enzymatic peracid generation” (E.I. du Pont de Nemours and Company, priority 2008, dated 2013).

Series [1] can be described thus: Dependence of specific activity on pH for hydrolysis of triacetin by CE-7 esterases/perhydrolases (cell extracts of E. coli KLP18 transformants). It counts as biochemical. The note with it: 200 mM triacetin, 25° C. On the procedure: A cell extract of an E. coli transformant expressing perhydrolase from Thermotoga neapolitana (KLP18/pSW196), Thermotoga maritima MSB8 (KLP18/pSW207), Bacillus pumilus PS213 (KLP1S/pSW195), Bacillus subtilis BE1010 (KLP18/pSW189), Bacillus subtilis ATCC® 31954™ (KLP18/pSW194), or Bacillus licheniformis ATCC® 14580™ (KLP18/pSW191) was prepared by passing a suspension of cell paste (20 wt % wet cell weight) in 0.05 M potassium phosphate buffer (pH 7.0) containing dithiothreitol (1 mM) twice through a French press having a working pressure of 16,000 psi (˜110 MPa). The crude extract was then centrifuged at 20,000×g to remove cellular debris, producing a clarified cell extract that was assayed for total soluble protein (Bicinchoninic Acid Kit for Protein Determination, Sigma Aldrich catalog #BCA1-KT). A portion of the clarified Thermotoga maritima MSB8 or Thermotoga neapolitana perhydrolase-containing extract was additionally heated for 20 min at 75° C., followed immediately by cooling in an ice/water bath to 5° C. The resulting mixture was centrifuged to remove precipitated protein, and the supernatant collected and assayed for total soluble protein as before.
Reactions (10 mL total volume) containing triacetin (200 mM) and cell extract supernatant (prepared as described above) were run at 25° C. and at a pH between 4.5 and 10.0, using the buffers and buffer concentrations listed in Table 5. The concentration of extract total protein (with or without heat-treatment to denature and precipitate E. coli-derived protein) was chosen to produce an ca. 50 mM decrease in triacetin concentration over 30 min (typically from 0.025 mg/mL to 0.40 mg/mL of total extract protein, dependent on the perhydrolase). A control reaction for each reaction condition was run to determine the concentration of triacetin hydrolyzed in the absence of added extract protein. Samples (100 μL) were removed at predetermined times and immediately added to 297 μL of dd H2O and 3 μL of 6N HCL. The resulting solution was mixed, then filtered using a 30,000 NMWL filter (Millipore) using a microcentrifuge for 2 min at 12,000 rpm. An aliquot of the filtrate (100 μL) was added to 150 μL of 0.417 mM N,N-diethyl meta-toluamide (external standard) in acetonitrile, and the resulting solution analyzed for triacetin by HPLC using a Supelco Discovery C8 column (25 cm×4.0 mm, 5 um; Supelco #59353-U40) and an isocratic mobile phase of 40% acetonitrile/60% distilled water at a flow rate of 1 mL/min. Triacetin was measured by UV detection at 225 nm.

Series [2] is described as follows: Peracetic acid production by perhydrolases, control by initial reaction pH in sodium citrate buffer. The note with it: triacetin 100 mM, 0.050 mg/mL extract total protein, 25° C. Type of series: biochemical. On the procedure: A cell extract of a transformant expressing perhydrolase from Bacillus pumilus PS213 (KLP18/pSW195), Thermotoga maritima MSB8 (KLP18/pSW207), Thermotoga neapolitana (KLP18/pSW196), or Bacillus subtilis ATCC® 31954™ (KLP18/pSW194) was prepared by passing a suspension of cell paste (20 wt % wet cell weight) in 0.05 M potassium phosphate buffer (pH 7.0) containing dithiothreitol (1 mM) twice through a French press having a working pressure of 16,000 psi (˜110 MPa). The crude extract was then centrifuged at 20,000×g to remove cellular debris, producing a clarified cell extract that was assayed for total soluble protein (Bicinchoninic Acid Kit for Protein Determination, Sigma Aldrich catalog #BCA1-KT). The supernatant was frozen in dry ice and stored at −80° C.
Reactions (10 mL total volume) containing triacetin, hydrogen peroxide and centrifuged cell extract supernatant (prepared as described above) in 50 mM sodium citrate buffer (initial pH 7.2 or 6.5) were run at 25° C. A control reaction for each reaction condition was run to determine the concentration of peracetic acid produced by chemical perhydrolysis of triacetin by hydrogen peroxide in the absence of added extract protein (data not shown). Determination of the concentration of peracetic acid in the reaction mixtures was performed according to the method described by Karst et al., supra.

[3] abbreviates: pH 7.0, potassium phosphate 0.15 M.
[4] abbreviates: pH 7.5, potassium phosphate 0.15 M.
Where [5] appears, read: pH 8.0, potassium phosphate 0.20 M.
The mark [6] stands for this setting: pH 8.5, Tris(hydroxymethyl)aminomethane 0.20 M.
Setting [7] is: pH 9.0, Tris(hydroxymethyl)aminomethane 0.20 M.
[8] abbreviates: initial pH 6.5, sodium citrate 50 mM, H2O2 100 mM.
Where [9] appears, read: initial pH 6.5, sodium citrate 50 mM, H2O2 250 mM.
Where [10] appears, read: initial pH 7.2, sodium citrate 50 mM, H2O2 100 mM.
[11] abbreviates: initial pH 7.2, sodium citrate 50 mM, H2O2 250 mM.

B1: Thermotoga maritima MSB8 perhydrolase: acetyl xylan esterase with perhydrolase activity from Thermotoga maritima MSB8 (SEQ ID NO: 16), cell extract of E. coli KLP18/pSW207 (protein, listed as Thermotoga maritima)
chain: MAFFDLPLEELKKYRPERYEEKDFDEFWEETLAESEKFPLDPVFERMESHLKTVEAYDVTFSGYRGQRIKGWLLVPKLEEEKLPCVVQYIGYNGGRGFPHDWLFWPSMGYICFVMDTRGQGSGWLKGDTPDYPEGPVDPQYPGFMTRGILDPRTYYYRRVFTDAVRAVEAAASFPQVDQERIVIAGGSQGGGIALAVSALSKKAKALLCDVPFLCHFRRAVQLVDTHPYAEITNFLKTHRDKEEIVFRTLSYFDGVNFAARAKIPALFSVGLMDNICPPSTVFAAYNYYAGPKEIRIYPYNNHEGGGSFQAVEQVKFLKKLFEKG
Turning to B1, the “specific activity (mmol triacetin/min/mg total extract protein)” value in series [1] (pH 5.5, sodium acetate 0.15 M) was 1.4 mmol triacetin/min/mg total extract protein; in series [1] (pH 6.0, sodium citrate 0.15 M), 4.3 mmol triacetin/min/mg total extract protein; in series [1] (pH 6.5, sodium citrate 0.15 M), 10.3 mmol triacetin/min/mg total extract protein; in series [1] (setting [3]) it was 16.0 mmol triacetin/min/mg total extract protein; in series [1] (setting [4]), 19.8 mmol triacetin/min/mg total extract protein; in series [1] (setting [5]), 28.7 mmol triacetin/min/mg total extract protein. For the same molecule, the “specific activity (mmol triacetin/min/mg total extract protein)” value is reported as 38.8 mmol triacetin/min/mg total extract protein in series [1] (setting [6]); 57.1 mmol triacetin/min/mg total extract protein in series [1] (setting [7]); 21.6 mmol triacetin/min/mg total extract protein in series [1] (pH 9.5, glycine 0.20 M). The “PAA, 1 min (ppm)” value came to 53 ppm in series [2] (setting [8]), 95 ppm in series [2] (setting [9]), 210 ppm in series [2] (setting [10]) and 635 ppm in series [2] (setting [11]). In addition, the “PAA, 5 min (ppm)” value in series [2] (setting [8]) is on record as 279 ppm; in series [2] (setting [9]) it was 742 ppm; in series [2] (setting [10]), 610 ppm; in series [2] (setting [11]), 1725 ppm. Besides, the “PAA, 30 min (ppm)” value in series [2] (setting [8]) is 1540 ppm; in series [2] (setting [9]), 2446 ppm; in series [2] (setting [10]) it was 1995 ppm; in series [2] (setting [11]) it was 3565 ppm.

B2: Thermotoga neapolitana perhydrolase: acetyl xylan esterase with perhydrolase activity from Thermotoga neapolitana (SEQ ID NO: 14), cell extract of E. coli KLP18/pSW196 (protein, listed as Thermotoga neapolitana)
chain: MAFFDMPLEELKKYRPERYEEKDFDEFWRETLKESEGFPLDPVFEKVDFHLKTVETYDVTFSGYRGQRIKGWLLVPKLAEEKLPCVVQYIGYNGGRGFPHDWLFWPSMGYICFVMDTRGQGSGWMKGDTPDYPEGPVDPQYPGFMTRGILDPGTYYYRRVFVDAVRAVEAAISFPRVDSRKVVVAGGSQGGGIALAVSALSNRVKALLCDVPFLCHFRRAVQLVDTHPYVEITNFLKTHRDKEEIVFRTLSYFDGVNFAARAKVPALFSVGLMDTICPPSTVFAAYNHYAGPKEIRIYPYNNHEGGGSFQAIEQVKFLKRLFEEG
Regarding B2, the “specific activity (mmol triacetin/min/mg total extract protein)” value is given as 0 mmol triacetin/min/mg total extract protein in series [1] (pH 5.5, sodium acetate 0.15 M); 0.4 mmol triacetin/min/mg total extract protein in series [1] (pH 6.0, sodium citrate 0.15 M); 1.7 mmol triacetin/min/mg total extract protein in series [1] (pH 6.5, sodium citrate 0.15 M); 3.3 mmol triacetin/min/mg total extract protein in series [1] (setting [3]); 5.3 mmol triacetin/min/mg total extract protein in series [1] (setting [4]); 5.8 mmol triacetin/min/mg total extract protein in series [1] (setting [5]). For the same molecule, the “specific activity (mmol triacetin/min/mg total extract protein)” value was 11.3 mmol triacetin/min/mg total extract protein in series [1] (setting [6]); 12.5 mmol triacetin/min/mg total extract protein in series [1] (setting [7]); 12.0 mmol triacetin/min/mg total extract protein in series [1] (pH 9.5, glycine 0.20 M); 0 mmol triacetin/min/mg total extract protein in series [1] (pH 10.0, glycine 0.20 M). Moreover, the “PAA, 1 min (ppm)” value came out at 221 ppm in series [2] (setting [8]), 434 ppm in series [2] (setting [9]), 798 ppm in series [2] (setting [10]) and 1790 ppm in series [2] (setting [11]). The “PAA, 5 min (ppm)” value in series [2] (setting [8]) was found to be 607 ppm; in series [2] (setting [9]), 1260 ppm; in series [2] (setting [10]), 1748 ppm; in series [2] (setting [11]) it was 2860 ppm. Further, the “PAA, 30 min (ppm)” value in series [2] (setting [8]) was determined as 1925 ppm; in series [2] (setting [9]), 2016 ppm; in series [2] (setting [10]), 2500 ppm; in series [2] (setting [11]), 3820 ppm.
